According to publication doi:10.1101/2022.08.30.505862:
Like-named read-outs stand apart in the source and are kept apart here.

How the values were obtained:
RBM39 RRM2 F259A = target: T1, RBM39 RRM2 F259A (UniProt Q14498 247-332, F259A); test: ITC
T1 sequence: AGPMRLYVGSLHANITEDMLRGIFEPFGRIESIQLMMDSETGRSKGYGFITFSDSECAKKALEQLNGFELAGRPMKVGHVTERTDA

RBM39 RRM2 [1] = target: T2, RBM39 RRM2 (UniProt Q14498 247-332); test: ITC
T2 sequence: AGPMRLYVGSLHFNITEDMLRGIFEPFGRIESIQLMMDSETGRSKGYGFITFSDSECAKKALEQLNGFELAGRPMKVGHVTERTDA

GB1-RBM39-RRM12 = target: T3, GB1-RBM39-RRM12 (UniProt Q14498 143-332); test: NMR CSP
T3 sequence: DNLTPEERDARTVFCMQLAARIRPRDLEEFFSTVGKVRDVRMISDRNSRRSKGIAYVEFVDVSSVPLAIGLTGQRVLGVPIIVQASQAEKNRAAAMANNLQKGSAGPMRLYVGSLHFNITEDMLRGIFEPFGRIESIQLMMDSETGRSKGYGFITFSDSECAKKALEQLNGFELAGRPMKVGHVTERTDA

RBM39 RRM2 [2] = target: T2, RBM39 RRM2; test: NMR CSP
RBM39 RRM2 [3] = target: T2, RBM39 RRM2; test: NMR CSP; remark: listed apart in the source
RBM39 RRM12 = target: T4, RBM39 RRM12 (UniProt Q14498 143-332); test: NMR CSP
T4 sequence: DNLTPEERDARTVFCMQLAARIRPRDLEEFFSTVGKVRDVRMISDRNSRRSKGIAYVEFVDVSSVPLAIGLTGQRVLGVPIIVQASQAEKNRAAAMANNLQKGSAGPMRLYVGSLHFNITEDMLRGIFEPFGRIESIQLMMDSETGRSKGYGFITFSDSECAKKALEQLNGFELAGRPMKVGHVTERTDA

RBM39 RRM1 = target: T5, RBM39 RRM1 (UniProt Q14498 142-237); test: NMR solution structure
T5 sequence: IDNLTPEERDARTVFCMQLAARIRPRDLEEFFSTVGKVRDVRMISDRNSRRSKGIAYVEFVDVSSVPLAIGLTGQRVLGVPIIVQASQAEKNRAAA

Binder: AGCUUUG (ssRNA) [AGCUUUG ssRNA]
- binding signal (RBM39 RRM2 F259A): 4 fold lower affinity than WT
- Kd (RBM39 RRM2 [1]): 9 ± 2 µM

Binder: GGGGACUGCGUUCGCGCUUUCCCC (structured_RNA) [U1 snRNA SL4]
- binding result (GB1-RBM39-RRM12): binds

Binder: GGACUGUCCACAAGACAGUCG (structured_RNA) [RBMY stem-loop aptamer]
- binding result (GB1-RBM39-RRM12): binds

Binder: CUCUUUG (ssRNA) [BS1 (CUCUUUG)]
- binding result (RBM39 RRM2 [2]): binds

Binder: ACCUUUG (ssRNA) [BS2 (ACCUUUG)]
- binding result (RBM39 RRM2 [2]): binds

Binder: CCUCCCA (ssRNA) [mutBS1 (CCUCCCA)]
- binding result (RBM39 RRM2 [3]): no binding

Binder: GGGAUUUCCCCAAAUGUGGGAAACUCCC (structured_RNA) [U1 snRNA SL3]
- binding result (RBM39 RRM12): binds
- binding result (RBM39 RRM1): binds
